The target of assay [1] is Linker-protein G (LPG) (Streptococcus sp.). Briefly: QCM-D; LPG physisorbed on a silica-coated QCM-D crystal, trastuzumab injected, PBS washes between injections; 1 x PBS pH 7.4, room temperature; Kelvin-Voigt model for mass and thickness.
The target in assay [2] is Recombinant protein G (PG) from Streptococcus sp. (Streptococcus sp.) (UniProt P19909). The assay is described as follows: QCM-D; PG covalently immobilised (APTES, glutaraldehyde) on a silica-coated QCM-D crystal, deactivated with Tris/ethanolamine, blocked with BSA; trastuzumab 1 ug/mL in 1 x PBS injected; Kelvin-Voigt model for mass and thickness.
The target of assay [3] is Humanized anti-HER2 monoclonal antibody trastuzumab (human). Briefly: SPR. In general terms: Surface plasmon resonance follows binding to a sensor surface in real time, without labels.

For “Humanized anti-HER2 monoclonal antibody trastuzumab”, the Mass Deposited for Bound Antibody in assay [1] amounted to 1200 ng/cm^2; in assay [2] it was 451 ng/cm^2. In assay [2], the Thickness of Bound Antibody was found to be 7.43 nm.

By Kd is commonly meant the equilibrium constant for the complex coming apart. A word on the koff: it is the first-order rate constant of dissociation. A low value points to a long-lived complex. The term kon denotes a measure of how fast the partners come together. In assay [3], “Recombinant protein G (PG) from Streptococcus sp. (from UniProt P19909 34-562) (natural protein)” gave a Half-Life t1/2 of 1.4 min, a Kd of 4.62 nM, a koff of 0.00824 s⁻¹ and a kon of 1.79e+06 M⁻¹ s⁻¹.

The values above are taken from publication PMC7022404.
